From patent US20230041030A1

Target: HLA-A*0201 MART-1 peptide complex on peptide-loaded K562 cells (human)
Assay: cell-based or functional assay

CD25 Fold Change (TCR-transduced CD8+ Jurkat KO cells co-cultured with peptide-loaded K562 APCs): 235 fold
CD69 Fold Change (TCR-transduced CD8+ Jurkat KO cells co-cultured with peptide-loaded K562 APCs): 45 fold
IL2 Fold Change (TCR-transduced CD8+ Jurkat KO cells co-cultured with peptide-loaded K562 APCs): 33 fold
Substance: MART-1/Melan-A specific TCR DMF5
